Substrate: C[S+](CC[C@H](N)C(=O)[O-])C[C@H]1O[C@@H](n2cnc3c(N)ncnc32)[C@H](O)[C@@H]1O
Assay: Michaelis-Menten kinetics
Assay type: biochemical, Homo sapiens

B1: G9a (Homo sapiens) (protein)
chain: NRAIRTEKIICRDVARGYENVPIPCVNGVDGEPCPEDYKYISENCETSTMNIDRNITHLQHCTCVDDCSSSNCLCGQLSIRCWYDKDGRLLQEFNKIEPPLIFECNQACSCWRNCKNRVVQSGIKVRLQLYRTAKMGWGVRALQTIPQGTFICEYVGELISDAEADVREDDSYLFDLDNKDGEVYCIDARYYGNISRFINHLCDPNIIPVRVFMLHQDLRFPRIAFFSSRDIRTGEELGFDYGDRFWDIKSKYFTCQCGSEKCKHSAEAIALEQSRLARLD
Protein B1 has a Km of 31.7 µM.

From PMC2914686
